T1: glutathione-S-transferase fusion protein of kinase-inactive ERK1 (GSTERK1K71R), P27361
T1 chain: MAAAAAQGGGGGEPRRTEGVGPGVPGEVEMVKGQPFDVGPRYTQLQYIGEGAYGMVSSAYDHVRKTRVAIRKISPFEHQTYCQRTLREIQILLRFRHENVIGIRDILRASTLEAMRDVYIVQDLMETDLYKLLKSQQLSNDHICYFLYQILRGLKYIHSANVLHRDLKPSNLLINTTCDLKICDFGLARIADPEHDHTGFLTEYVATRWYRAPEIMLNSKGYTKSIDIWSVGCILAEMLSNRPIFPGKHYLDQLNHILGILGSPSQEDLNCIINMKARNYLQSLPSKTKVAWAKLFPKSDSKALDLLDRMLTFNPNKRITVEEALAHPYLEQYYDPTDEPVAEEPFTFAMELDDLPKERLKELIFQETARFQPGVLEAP

B1: MEK1 (wt)(d280-323) (protein)
chain: MPKKKPTPIQLNPAPDGSAVNGTSSAETNLEALQKKLEELELDEQQRKRLEAFLTQKQKVGELKDDDFEKISELGAGNGGVVFKVSHKPSGLVMARKLIHLEIKPAIRNQIIRELQVLHECNSPYIVGFYGAFYSDGEISICMEHMDGGSLDQVLKKAGRIPEQILGKVSIAVIKGLTYLREKHKIMHRDVKPSNILVNSRGEIKLCDFGVSGQLIDSMANSFVGTRSYMSPERLQGTHYSVQSDIWSMGLSLVEMAVGRYPIPPPDAKELELMFGCQVKLPSGVFSLEFQDFVNKCLIKNPAERADLKQLMVHAFIKRSDAEEVDFAGWLCSTIGLNQPSTPTHAAGV
B2: MEK1-C2 (d280-323) (protein)
chain: ELKDDDFEKISELGAGNGGVVFKVSHKPSGLVMARKLIHLEIKPAIRNQIIRELQVLHECNSPYIVGFYGAFYSDGEISICMEHMDGGSLDQVLKKAGRIPEQILGKVSIAVIKGLTYLREKHKIMHRDVKPSNILVNSRGEIKLCDFGVSGQLIDSMANSFVGTRSYMSPERLQGTHYSVQSDIWSMGLSLVEMAVGRYPIPPPDAKELELMFGCQVKLPSGVFSLEFQDFVNKCLIKNPAERADLKQLMVHAFIKRSDAEEVDFAGWLCSTIGLNQPSTPTHAAGV
B3: MEK1-C3 (d280-323) (protein)
chain: LDEQQRKRLEAFLTQKQKVGELKDDDFEKISELGAGNGGVVFKVSHKPSGLVMARKLIHLEIKPAIRNQIIRELQVLHECNSPYIVGFYGAFYSDGEISICMEHMDGGSLDQVLKKAGRIPEQILGKVSIAVIKGLTYLREKHKIMHRDVKPSNILVNSRGEIKLCDFGVSGQLIDSMANSFVGTRSYMSPERLQGTHYSVQSDIWSMGLSLVEMAVGRYPIPPPDAKELELMFGCQVKLPSGVFSLEFQDFVNKCLIKNPAERADLKQLMVHAFIKRSDAEEVDFAGWLCSTIGLNQPSTPTHAAGV
B4: MEK1-C1 (d280-323) (protein)
chain: EAFLTQKQKVGELKDDDFEKISELGAGNGGVVFKVSHKPSGLVMARKLIHLEIKPAIRNQIIRELQVLHECNSPYIVGFYGAFYSDGEISICMEHMDGGSLDQVLKKAGRIPEQILGKVSIAVIKGLTYLREKHKIMHRDVKPSNILVNSRGEIKLCDFGVSGQLIDSMANSFVGTRSYMSPERLQGTHYSVQSDIWSMGLSLVEMAVGRYPIPPPDAKELELMFGCQVKLPSGVFSLEFQDFVNKCLIKNPAERADLKQLMVHAFIKRSDAEEVDFAGWLCSTIGLNQPSTPTHAAGV

Tests used:
[1] = test system: glutathione-S-transferase fusion protein of kinase-inactive ERK1 (GSTERK1K71R); assay: Kinase activity of the modified MEK1 peptides, GSTERK1K71R substrate, [γ-32P]ATP; assay type: biochemical; conditions: after Raf activation; 50 ng modified MEK peptide, 10 μM ATP, room temperature 20 minutes; initial experiments
Experimental: The modified MEK peptides (50 ng) were assayed in 20 mM HEPES (N-2-hydroxyethyl-piperazine-N′-2-ethanesulfonic acid) pH 7.5, 10 mM MgCl2, […] (ethylene glycol bis(2-aminoethyl ether)-N,N,N′N′-tetraacetic acid), 10 μM ATP, with 5 μCi [γ-^32P] ATP. Appropriate samples had 0.5 units of Raf-1 (UBI) added, and the reaction started with the addition of 1 μg GSTERK1 (K71R). The reactions were incubated at room temperature for 20 minutes, then quenched with 5 μl 6×Laemmli sample buffer. The samples were then resolved by SDS-PAGE, and the phosphoproteins visualized by autoradiography. Radiolabel incorporated into ERK was quantitated by excision of the protein band from the gel and counting in a standard scintillation counter. Initial experiments with the modified MEK1 s generated the following specific activities in units of pmol PO4 min-1 mg-1 after Raf activation: WT: 8380.6, WTsPR: 40.1, C1FL: 773.3, ClsPR: 35.9, C2FL: 537.5, C2sPR: 24.1, C3FL: 441.7 and C3sPR: 26.9.

[2] = test system: MAPK; conditions: correlated with efficacy; cited from earlier work
[3] = test system: colon carcinomas of both mouse and human origin; conditions: cited from earlier work
[4] = target: T1, glutathione-S-transferase fusion …

Molecule | specific activities [1] [pmol PO4 min-1 mg-1] | specific activity after Raf activation (32P incorporated into ERK) [4] | further results
C1FL: NH2-terminally truncated MEK1 encoding amino acids 51-393 of SEQ ID NO: 2 | 773.3 | – | –
C3FL: NH2-terminally truncated MEK1 having peptide of amino acid residues 42 to 393 of SEQ ID NO: 2 | 441.7 | – | –
C2FL: NH2-terminally truncated MEK1 having peptide of amino acid residues 62 to 393 of SEQ ID NO: 2 | 537.5 | – | –
WT: Wild-type human MEK1, full-length peptide of SEQ ID NO: 2, expressed in E. coli | 8380.6 | – | –
O=C(NOCC1CC1)c1ccc(F)c(F)c1Nc1ccc(I)cc1Cl [2-(2-chloro-4-iodo-phenylamino)-N-cyclopropylmethoxy-3,4-difluoro-benzamide] | – | – | levels of MAPK in excised tumors [2]: reduction in levels of MAPK; tumor growth inhibited ([3]; mice with colon carcinomas of both mouse and human origin, after treatment with inhibitor): ≤ 80%; toxicity ([3]; wide range of doses, mice): no signs of toxicity
B1 | 40.1 | WTsPR: 40.1 | –
B2 | 24.1 | C2sPR: 24.1 | –
B3 | 26.9 | C3sPR: 26.9 | –
B4 | 35.9 | ClsPR: 35.9 | –

— US20030224500A1, “Modified MEK1 and MEK2, crystal of a peptide: ligand: cofactor complex containing such modified MEK1 or MEK2, and methods of use thereof” (priority 2001, published 2003)
